Laboratory results from patent publication US20230416329A1, “A PEPTIDE WITH DISULFIDE BONDS AND INHIBITORY ACTIVITY AGAINST SERINE PROTEASES, DERIVED HYBRID PEPTIDES THEREOF, AND USES THEREOF” (INSTITUTE OF MATERIA MEDICA , CHINESE ACADEMY OF MEDICAL …, priority 2020, published 2023).

Tested on: P407-induced hyperlipidemia mice
Experiment: Effect of Repatha on serum TC and LDL-C in P407-induced hyperlipidemia mice (model validation)
Type: in vivo, mouse
Method: Model preparation and validation: Normal ICR mice were fasted overnight with water ad libitum. The poloxamer 407 (P407, 500 mg/kg) was intraperitoneally injected on the next day. […] The clinical drug Repatha was injected subcutaneously at a dose of 40 mg/kg for 24 hours, followed by intraperitoneal injection of P407. The serum TC and LDL-C levels were measured 24 hours after injection of P407 (Table 25).

[1] = serum, Repatha 40 mg/kg subcutaneous, 24 hours after P407 injection

B1: Repatha: the clinical (marketed) drug Repatha, positive control in the P407 hyperlipidemia model (antibody, chains of the INN, looked up, V domains shown)
VH: EVQLVQSGAEVKKPGASVKVSCKASGYTLTSYGISWVRQAPGQGLEWMGWVSFYNGNTNYAQKLQGRGTMTTDPSTSTAYMELRSLRSDDTAVYYCARGYGMDVWGQGTTVTVSS
VL: ESALTQPASVSGSPGQSITISCTGTSSDVGGYNSVSWYQQHPGKAPKLMIYEVSNRPSGVSNRFSGSKSGNTASLTISGLQAEDEADYYCNSYTSTSMVFGGGTKLTVL
**Q.** Which “serum TC and LDL-C levels (in words)” value (40 mg/kg s.c., P407 500 mg/kg i.p., ICR mice) does the source give for B1 here?
**A.** significantly reduced the serum TC and LDL-C levels

**Q.** And the LDL-C [1]?
**A.** 0.364 ± 0.097 mmol/L

**Q.** What about the TC [1] of the same molecule?
**A.** 190.0 ± 36.6 mg/dL
